Results published in patent US20240343803A1 (SHANDONG SIMCERE BIOPHARMACEUTICAL, published 2024).

Tests used:
[1] = target: T1, human PVRIG-his (AcroBiosystems, Cat NO. PVG-H52H4) (human, UniProt Q6DKI7 41-171, limits assumed); test: ELISA, coated human PVRIG-his
T1 construct: treated as the same protein; also called human PVRIG-His protein; Human PVRIG-His, Acro C227P1-9ARF1-T4
T1 sequence (looked up): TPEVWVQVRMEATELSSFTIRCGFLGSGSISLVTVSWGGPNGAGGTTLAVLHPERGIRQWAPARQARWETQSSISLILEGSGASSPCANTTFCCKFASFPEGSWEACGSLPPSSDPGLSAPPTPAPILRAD

[2] = target: T2, full-length human TIGIT on CHO-K1 cells (CHO-K1 human TIGIT) (human, UniProt Q495A1 22-244); test: FACS, CHO-K1 human TIGIT low expression strain
T2 construct: NCBI XP_024309156.1; entry includes the signal peptide; also called high expression strain 1D2; medium expression strain 2D10
T2 sequence: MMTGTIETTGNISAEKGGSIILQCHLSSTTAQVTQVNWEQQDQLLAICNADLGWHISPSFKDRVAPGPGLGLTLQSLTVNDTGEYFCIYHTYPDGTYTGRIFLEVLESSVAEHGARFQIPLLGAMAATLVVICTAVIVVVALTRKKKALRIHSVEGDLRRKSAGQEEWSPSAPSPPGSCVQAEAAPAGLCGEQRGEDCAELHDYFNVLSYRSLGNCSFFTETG
Procedure: The collected cells were washed once with PBS (Hyclone, Cat NO. SH30256), resuspended to 2×10⁵/50 μL with 1% BSA-PBS. The antibodies were diluted to 80 nM with 1% BSA-PBS (diluted by 3-fold serial dilution for 12 concentration points). The 50 μL cells were then mixed with 50 μL diluted antibodies, and then incubated at 4° C. for 60 minutes. […] After washing twice with PBS, the cell samples were resuspended with 1% BSA-PBS, 100 μL/well and then analyzed by flow cytometry (BD, Canto II).

[3] = target: T3, human TIGIT ECD-mFc (fusion protein of extracellular domain of human TIGIT and mouse IgG2a Fc fragment) (human); test: competition cell ELISA; blocked: TIGIT ECD-mFc binding to CHO-K1 CD155 cells
T3 chain: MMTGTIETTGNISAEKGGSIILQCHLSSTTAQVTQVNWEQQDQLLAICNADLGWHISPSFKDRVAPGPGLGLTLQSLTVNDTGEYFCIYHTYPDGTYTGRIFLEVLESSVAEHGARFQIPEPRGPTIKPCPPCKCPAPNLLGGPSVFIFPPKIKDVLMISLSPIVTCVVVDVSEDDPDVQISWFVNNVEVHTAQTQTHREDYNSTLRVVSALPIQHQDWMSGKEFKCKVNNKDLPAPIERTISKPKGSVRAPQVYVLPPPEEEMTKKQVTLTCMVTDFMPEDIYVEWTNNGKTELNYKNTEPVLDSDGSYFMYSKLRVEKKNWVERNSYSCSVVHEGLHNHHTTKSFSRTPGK
Procedure: After discarding the culture supernatant, the cells were fixed with a cell fixation solution (Beyotime, P0098), 50 μL/well, at room temperature for 1 hour. After washing once with 0.05% Tween 20-PBS on the Microplate Washer, the plate was added with 5% skim milk powder-PBS, 250 μL/well, and incubated at 37° C. for 2-4 hours. The plate was then washed 3 times with 0.05% Tween 20-PBS on the Microplate Washer. The sample were mixed with human TIGIT ECD-mFc (working concentration: 100 ng/mL) and incubated for 0.5 hour. The mixed solution of antigen and antibody was added to the cell plate (50 μL/well). The cells were incubated with the mixture at 37° C. for 1.5-2 hours and then washed with 0.05% Tween 20-PBS for 3 times on the Microplate Washer. […] After washing 3 times with 0.05% Tween 20-PBS on the Microplate Washer, the plate was added with TMB chromogenic solution (KPL, 52-00-03), 50 μL/well, and incubated at 37° C. for 10 minutes. 1M HCL, 50 µL/well, was then added into the plate to terminate the reaction, and the OD450 nm was read by a microplate reader (Biotek, Powerwave HT).

[4] = target: T4, Fusion protein of extracellular domain of human TIGIT and His-tag (human TIGIT ECD-his) (human); test: BIAcore; KD ratio, by the numbers to TIGIT-005-H2L1 of r33
T4 chain: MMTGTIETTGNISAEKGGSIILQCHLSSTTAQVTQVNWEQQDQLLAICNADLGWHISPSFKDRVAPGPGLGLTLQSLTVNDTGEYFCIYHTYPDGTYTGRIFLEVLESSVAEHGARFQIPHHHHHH

B1: SRF813-hIgG1 (antibody, V domains shown)
VH: QVQLVQSGAEVKKPGSSVKVSCKASGGTFSSAAISWVRQAPGQGLEWMGNIIPIVGIANYAQKFQGRVTITADESTSTAYMELSSLRSEDTAVYYCARDTGRGYTRHFWFDPWGQGTLVTVSS
VL: DIQMTQSPSSLSASVGDRVTITCRASQSISSYLNWYQQKPGKAPKLLIYAASSLQSGVPSRFSGSGSGTDFTLTISSLQPEDFATYYCQQSDILYTFGGGTKVEIK
notes: human IgG1 format by its name
With B1 as the binder, how does the “EC50 (read off the curve)” value [1] read?
The value was roughly 0.05 nM.

B2: RG6058-hIgG1 (antibody, V domains shown)
VH: EVQLQQSGPGLVKPSQTLSLTCAISGDSVSSNSAAWNWIRQSPSRGLEWLGKTYYRFKWYSDYAVSVKGRITINPDTSKNQFSLQLNSVTPEDTAVFYCTRESTTYDLLAGPFDYWGQGTLVTVSS
VL: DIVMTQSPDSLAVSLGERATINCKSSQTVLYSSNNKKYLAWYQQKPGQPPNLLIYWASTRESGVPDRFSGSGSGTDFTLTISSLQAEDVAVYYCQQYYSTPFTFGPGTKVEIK
notes: human IgG1 format by its name; also called Roche RG6058; control antibody RG6058
For B2, which “EC50 (read off the curve)” value [2] is on record?
The value was roughly 0.4 nM.

What about the “IC50 (read off the curve)” value [3] of the same binder?
The value was roughly 0.6 nM.

B3: TIGIT-005-H2L1d (antibody, V domains shown)
VH: EVQLVQSGAEVKKPGASVKVSCKASGYAFTNYLIEWVRQAPGQRLEWMGVINPGSGGTNYKEKFKGRVTITADKSSSTAYMELSSLRSEDTAVYYCARGEYFFFDYWGQGTTVTVSS
VL: DIVMTQSPDSLAVSLGERATINCKASQHVSNAVAWYQHKPGQSPKLLIYSASYRYTGVPDRFSGSGSGTDFTLTISSLQAEDVAVYYCQQHYNTPHTFGGGTKVEIK
notes: Humanized anti-TIGIT antibody with NG-site mutation in VL
Which “Fold change vs chimeric antibodies (KD)” value [4] does the source give for B3 here?
The value was 1.21 fold.
